Laboratory results reported in US20140120095A1 (Boehringer Ingelheim, published 2014).
Changes are numbered by the printed parent chain.

T1: cynomolgus DLL4 overexpressed on cells (cynomolgus, UniProt Q9NR61 27-685 (human entry))
T1 construct: also called cyno DII4; cDLL4
T1 chain: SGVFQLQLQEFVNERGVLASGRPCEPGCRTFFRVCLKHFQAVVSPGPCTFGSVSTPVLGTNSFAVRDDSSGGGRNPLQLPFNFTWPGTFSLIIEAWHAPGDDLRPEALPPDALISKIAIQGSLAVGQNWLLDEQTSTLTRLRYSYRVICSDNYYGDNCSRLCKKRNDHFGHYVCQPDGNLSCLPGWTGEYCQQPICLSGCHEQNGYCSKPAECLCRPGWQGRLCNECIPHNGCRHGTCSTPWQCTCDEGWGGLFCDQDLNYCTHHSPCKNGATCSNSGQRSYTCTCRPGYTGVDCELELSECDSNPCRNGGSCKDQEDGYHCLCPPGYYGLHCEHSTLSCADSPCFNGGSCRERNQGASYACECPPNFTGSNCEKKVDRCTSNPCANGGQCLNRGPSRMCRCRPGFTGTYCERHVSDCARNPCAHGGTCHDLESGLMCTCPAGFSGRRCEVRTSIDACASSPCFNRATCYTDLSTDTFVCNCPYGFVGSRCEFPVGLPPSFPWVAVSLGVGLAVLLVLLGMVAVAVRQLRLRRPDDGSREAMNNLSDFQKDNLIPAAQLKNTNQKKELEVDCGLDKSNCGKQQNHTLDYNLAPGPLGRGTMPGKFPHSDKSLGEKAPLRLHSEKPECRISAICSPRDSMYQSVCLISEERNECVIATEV

T2: human DLL1 (Alexis) (human, UniProt O00548 18-545, limits assumed)
T2 construct: also called hDLL1
T2 sequence (looked up): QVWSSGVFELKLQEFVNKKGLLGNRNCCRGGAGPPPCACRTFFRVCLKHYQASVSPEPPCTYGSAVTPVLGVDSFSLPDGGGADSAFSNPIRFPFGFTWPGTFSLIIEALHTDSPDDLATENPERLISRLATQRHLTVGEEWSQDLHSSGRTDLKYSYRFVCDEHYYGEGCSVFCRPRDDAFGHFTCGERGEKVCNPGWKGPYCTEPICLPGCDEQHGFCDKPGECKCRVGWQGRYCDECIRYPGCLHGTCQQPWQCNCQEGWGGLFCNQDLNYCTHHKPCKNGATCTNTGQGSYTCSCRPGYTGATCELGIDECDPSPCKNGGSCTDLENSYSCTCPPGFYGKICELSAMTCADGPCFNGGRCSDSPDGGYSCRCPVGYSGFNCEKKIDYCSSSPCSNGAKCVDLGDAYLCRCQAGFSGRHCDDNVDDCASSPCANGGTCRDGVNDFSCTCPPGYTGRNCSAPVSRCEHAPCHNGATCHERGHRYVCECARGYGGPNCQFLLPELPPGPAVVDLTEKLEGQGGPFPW

B1: DLLBII101G08 (VHH, not shown: small tags and cut ends)
VHH: EVQLVESGGGLVQAGGSLRLSCAASGRTFSSYAMAWFRQAPGKEREFVAAIRWSGGTAYYADSVQGRFTISRDNAKNTVYLQMNSLKPEDTAVYYCANRAADTRLGPYEYDYWGQGTQVTVSS
notes: parent VHH; also called 101G08 (wt); 101G8
B2: DLLBII129B05 (VHH, not shown: small tags and cut ends)
VHH: B1 VHH with F37Y, F47Y, A101P, G106A, Y112H
B3: DLLBII129D08 (VHH, not shown: small tags and cut ends)
VHH: B1 VHH with F37Y, F47Y, A101P, G106E, E109L
B4: DLLBII129E11 (VHH, not shown: small tags and cut ends)
VHH: B1 VHH with F37Y, F47Y, A101P, G106R, E109L
B5: DLLBII101G08 (VHH)
VHH: B1 VHH
notes: also called 101G8; DLLBII101G8
B6: DLLBII56A09 (VHH)
VHH: EVQLVESGGGLVQPGGSLRLSCAASGFTFDDYAIGWFRQAPGKEPEGISCISSSGGITYYADSVKGRFTTSRDNAKNTVYLQMNSLKPEDTAVYYCATPGIAACRGIHYTGQGTQVTVSS
notes: also called 56A9; DLLBII56A9
B7: DLLBII115A05 (VHH)
VHH: EVQLVESGGGLVQPGGSLRLSCAASGFTFGSYDMSWVRRSPGKGPEWVSSINSGGGSTYYADFVKGRFTISRDNAKNTLYLQMNSLKPEDTAVYYCAADRYIRARQGDYWGAYEYDYWGQGTQVTVSS
notes: also called 115A5; DLLBII115A5
B8: DLLBII133G05 (VHH, not shown: small tags and cut ends)
VHH: B7 VHH with S50A, A61T, F63Y, R103W, D108E, E114A
B9: DLLBII136C07 (VHH, not shown: small tags and cut ends)
VHH: B7 VHH with F63Y, R103W, D108E
B10: DLLBII133A09 (VHH, not shown: small tags and cut ends)
VHH: B7 VHH with S50A, F63Y, R103W, D108E, E114A
B11: DLLBII015 (VHH, not shown: small tags and cut ends)
VHH: B7 VHH with F29I, S50A, F63Y, R103W, D108E, E114A

What follows are binders tested against T3, recombinant mouse DLL4 (C-terminally His-tagged extracellular domain, R&D Systems) (mouse, UniProt Q9JI71 27-532) (assay: ProteOn off-rate screen, periplasmic extract, coated mouse DLL4).
T3 construct: extracellular domain; also called rmDLL4; mDLL4
Method: In a first cycle, amino acid substitutions are introduced randomly in both framework (FW) and complementary determining regions (CDR) using the error-prone PCR method. […] After a polish step, PCR products are inserted via unique restriction sites into a vector designed to facilitate phage display of the VHH library. Consecutive rounds of in-solution selections are performed using decreasing concentrations of biotinylated recombinant human DLL4 (biot-rhDLL4) and trypsin elutions. Affinity-driven selections in a third round using cold rhDLL4 (at least 100× excess over biot-rhDLL4) are also performed. No selections on murine DLL4 are included as (conservation of) cross-reactivity is assessed at the screening level. Individual mutants are produced as recombinant protein using an expression vector derived from pUC119, which contains the LacZ promoter, a resistance gene for ampicillin, a multiple cloning site and an ompA leader sequence (pAX50). E. coliTG1 cells are transformed with the expression vector library and plated on agar plates (LB+Amp+2% glucose). Single colonies are picked from the agar plates and grown in 1 mL 96-deep-well plates. VHH expression is induced by adding IPTG (1 mM). Periplasmic extracts (in a volume of ˜80 uL) are prepared according to standard methods and screened for binding to recombinant human and mouse DII4 in a ProteOn (BioRad, Hercules, Calif., USA) off-rate assay. In brief, a GLC ProteOn Sensor chip is coated with recombinant human DII4 on the “ligand channels” L2 and L4 (with L1/L3 as reference channel), while “ligand channels” […] is coated with mouse DII4. Periplasmic extract of affinity-matured clones is diluted 1/10 and injected across the “analyte channels” A1-A6. An average off-rate is calculated of the wild type clones present in the plate and served as a reference to calculate off-rate improvements.

T3 sequence (Q9JI71 27-532): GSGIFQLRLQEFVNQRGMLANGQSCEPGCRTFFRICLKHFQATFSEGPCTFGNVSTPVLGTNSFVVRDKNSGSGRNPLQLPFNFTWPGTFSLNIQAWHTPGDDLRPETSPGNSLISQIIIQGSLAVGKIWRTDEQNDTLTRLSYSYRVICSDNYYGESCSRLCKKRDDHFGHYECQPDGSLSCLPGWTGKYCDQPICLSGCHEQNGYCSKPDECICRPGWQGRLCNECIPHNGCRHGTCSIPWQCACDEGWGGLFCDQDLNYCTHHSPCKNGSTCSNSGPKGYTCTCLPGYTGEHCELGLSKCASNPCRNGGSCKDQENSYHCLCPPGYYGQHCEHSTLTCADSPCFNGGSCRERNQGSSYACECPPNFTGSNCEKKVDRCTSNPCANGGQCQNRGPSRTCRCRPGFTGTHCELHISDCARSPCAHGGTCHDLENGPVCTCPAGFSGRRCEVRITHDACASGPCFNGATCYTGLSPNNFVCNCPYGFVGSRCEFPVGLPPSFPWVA

fold (off-rate vs DLLBII101G08)	koff	Binder
1 fold	0.0067 s⁻¹	B1
20 fold	0.00034 s⁻¹	B2
35 fold	0.00019 s⁻¹	B3
26 fold	0.00025 s⁻¹	B4

Biological target: T1, cynomolgus DLL4 overexpressed on cells
Assay: FACS titration on HEK293-cDLL4 cells, MCF
Procedure, shortened: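 HEK293 cells overexpressing DLL4 (transient or stable) were incubated with VHH titrations for 30 min on ice. After washing, binding was detected with anti-c-myc-Alexa647 by flow cytometry, and the mean MCF was used to calculate EC50.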

EC50 (read off the curve)	Binder
~9 nM	B5
~3 nM	B6
~4 nM	B7

Each binder was assayed against T4, recombinant human DLL4 (human, UniProt Q9NR61 25-522) (assay: competition ELISA, biot-hDLL4 to coated hNotch1-Fc).
T4 construct: also called rhDLL4; hDLL4
From the text: Residual binding of biotinylated human DII4 is detected using horseradish peroxidase (HRP) conjugated extravidin (Sigma, St. Louis, Mo., USA) (FIG. 3 A-C). Human DII4 is biotinylated as described above.

T4 sequence (Q9NR61 25-522): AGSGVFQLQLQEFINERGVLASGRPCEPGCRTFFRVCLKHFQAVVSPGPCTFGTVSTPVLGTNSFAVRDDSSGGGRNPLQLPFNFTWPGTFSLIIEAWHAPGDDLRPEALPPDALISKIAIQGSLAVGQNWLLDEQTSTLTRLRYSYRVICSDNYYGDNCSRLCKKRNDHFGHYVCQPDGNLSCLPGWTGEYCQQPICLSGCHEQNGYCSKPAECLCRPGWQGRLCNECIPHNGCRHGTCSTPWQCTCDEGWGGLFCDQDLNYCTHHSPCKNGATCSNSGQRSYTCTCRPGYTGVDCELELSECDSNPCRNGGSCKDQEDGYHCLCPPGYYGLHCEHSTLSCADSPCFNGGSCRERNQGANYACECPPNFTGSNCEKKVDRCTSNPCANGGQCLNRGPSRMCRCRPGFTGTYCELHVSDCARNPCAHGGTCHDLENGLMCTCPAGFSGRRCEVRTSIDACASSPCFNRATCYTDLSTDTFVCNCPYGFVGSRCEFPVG

IC50	Binder
9.5 nM	B5
4.9 nM	B6
9.1 nM	B7

The binders below were run against T2, human DLL1 (Alexis) (assay: binding ELISA on coated human DLL1 (Example 5.8, Example 7), OD 450 nm).

Binder	binding result
B1	no binding (tested: log[M] -6.1 (about 8e-7 M))
B2	no binding (tested: log[M] -6.1 (about 8e-7 M))
B3	no binding (tested: log[M] -6.1 (about 8e-7 M))
B4	no binding (tested: log[M] -6.1 (about 8e-7 M))

These binders were tested against T5, human Jagged-1 (Alexis) (human, UniProt P78504 34-1067, limits assumed) (assay: binding ELISA on coated human Jagged-1 (Example 5.8, Example 7), OD 405 nm).
T5 construct: also called hJag-1; hJAG1

Binder	binding result
B1	no binding (tested: log[M] -6.1 (about 8e-7 M))
B2	no binding (tested: log[M] -6.1 (about 8e-7 M))
B3	no binding (tested: log[M] -6.1 (about 8e-7 M))
B4	no binding (tested: log[M] -6.1 (about 8e-7 M))

Biological target: T2, human DLL1 (Alexis)
Assay: binding ELISA on coated human DLL1 (Example 5.8, Example 7), OD 450 nm
Remark: another data set of the same source

Binder	binding result
B8	no binding (tested: log[M] -6.1 (about 8e-7 M))
B9	no binding (tested: log[M] -6.1 (about 8e-7 M))
B10	no binding (tested: log[M] -6.1 (about 8e-7 M))
B11	no binding (tested: log[M] -6.1 (about 8e-7 M))

What follows are binders tested against mDLL4.12 (mouse) (assay: Biacore, VHH on chip, 200 nM DLL4 sample injected).

Binding (RU)	koff	Binder
244 RU	0.00452 s⁻¹	B5
161 RU	0.0013 s⁻¹	B6
152 RU	0.0031 s⁻¹	B7

These binders were tested against mDLL4.10 (mouse) (assay: Biacore, VHH on chip, 200 nM DLL4 sample injected).

Binding (RU)	koff	Binder
189 RU	0.00514 s⁻¹	B5
141 RU	0.0011 s⁻¹	B6
121 RU	0.0038 s⁻¹	B7
